In patent publication US20220177834A1, “STABLE SYSTEM FOR THE IN VITRO CULTURE OF CEREBELLAR GRANULE CELL PRECURSORS (GCP), STABLE METHOD FOR THE IN VITRO CULTURE OF SAID CELLS AND USE OF SAID SYSTEM OR METHOD FOR IN VITRO CULTURE” (UNIVERSITA DEGLI STUDI Dl ROMA "LA SAPIENZA", priority 2019, published 2022):

Legend:
Shh pathway = Shh pathway expression (Gli1, N-Myc; Western Blot, real time Q-PCR) in GCP neurosphere cultures; assay type: cell-based, mouse; settings: factor alone, FIG. 4
Procedure: (§1) After surgical resection from a mouse on the seventh day of postnatal life (P7) the cerebellum was mechanically shredded in a buffer containing HBSS, glucose and antibiotics, and DNase (at concentrations as defined above) and the individual cells thus obtained were counted and plated at a dilution of 16000 cells/cm^2 on a medium composed of DMEM-F12, glucose, Vitamin A-free B27, insulin, NALC, heparin, antibiotics (at concentrations as defined above) and SAG (200 nM) and EGF ([…]). On this medium the cells can be enriched and maintained for an unlimited time, after periodical dissociation of the spheres with Accutase® (2-3 times per week) and propagation by dilution (to prevent excessive growth and consequent death from nutrient deficiency and hypoxia). The reaction conditions were as described above.

GCP cells = assay: Clonogenicity / long-term propagation of GCP neurosphere cultures; assay type: cell-based, mouse
Procedure: as §1

B1: EGF: Epidermal Growth Factor (protein, UniProt P01133 23-1207, looked up)
Pro-epidermal growth factor: PQHWSCPEGTLAGNGNSTCVGPAPFLIFSHGNSIFRIDTEGTNYEQLVVDAGVSVIMDFHYNEKRIYWVDLERQLLQRVFLNGSRQERVCNIEKNVSGMAINWINEEVIWSNQQEGIITVTDMKGNNSHILLSALKYPANVAVDPVERFIFWSSEVAGSLYRADLDGVGVKALLETSEKITAVSLDVLDKRLFWIQYNREGSNSLICSCDYDGGSVHISKHPTQHNLFAMSLFGDRIFYSTWKMKTIWIANKHTGKDMVRINLHSSFVPLGELKVVHPLAQPKAEDDTWEPEQKLCKLRKGNCSSTVCGQDLQSHLCMCAEGYALSRDRKYCEDVNECAFWNHGCTLGCKNTPGSYYCTCPVGFVLLPDGKRCHQLVSCPRNVSECSHDCVLTSEGPLCFCPEGSVLERDGKTCSGCSSPDNGGCSQLCVPLSPVSWECDCFPGYDLQLDEKSCAASGPQPFLLFANSQDIRHMHFDGTDYGTLLSQQMGMVYALDHDPVENKIYFAHTALKWIERANMDGSQRERLIEEGVDVPEGLAVDWIGRRFYWTDRGKSLIGRSDLNGKRSKIITKENISQPRGIAVHPMAKRLFWTDTGINPRIESSSLQGLGRLVIASSDLIWPSGITIDFLTDKLYWCDAKQSVIEMANLDGSKRRRLTQNDVGHPFAVAVFEDYVWFSDWAMPSVMRVNKRTGKDRVRLQGSMLKPSSLVVVHPLAKPGADPCLYQNGGCEHICKKRLGTAWCSCREGFMKASDGKTCLALDGHQLLAGGEVDLKNQVTPLDILSKTRVSEDNITESQHMLVAEIMVSDQDDCAPVGCSMYARCISEGEDATCQCLKGFAGDGKLCSDIDECEMGVPVCPPASSKCINTEGGYVCRCSEGYQGDGIHCLDIDECQLGEHSCGENASCTNTEGGYTCMCAGRLSEPGLICPDSTPPPHLREDDHHYSVRNSDSECPLSHDGYCLHDGVCMYIEALDKYACNCVVGYIGERCQYRDLKWWELRHAGHGQQQKVIVVAVCVVVLVMLLLLSLWGAHYYRTQKLLSKNPKNPYEESSRDVRSRRPADTEDGMSSCPQPWFVVIKEHQDLKNGGQPVAGEDGQAADGSMQPTSWRQEPQLCGMGTEQGCWIPVSSDKGSCPQVMERSFHMPSYGTQTLEGGVEKPHSLLSANPLWQQRALDPPHQMELTQ
modifications: Pro-epidermal growth factor
expression of markers typical of GCP (Shh pathway): does not express the markers typical of GCP | proliferative power of GCP cells (GCP cells): ensures its unlimited proliferative power
